The experiment deals with TIM (the TIM-EGFP-LacI bait of the FRAP experiment, not named). Description: FRAP.

As to “TagRFP-IWS1-TND (from UniProt Q96ST2 614-692) (domain or fragment)”, the FRAP half-life is 11.7 s.

The record behind these values is publication PMC8943916.
